The values below come from US20250352667A1.

Test [1] has as its target KEAP1 (wild-type full-length), His-tagged (human) (UniProt Q14145). Description: AlphaScreen; NRF2 wt isoform 1 1228.8 nM, KEAP1 150 nM; signal against NRF2-only control; control for Q75R.
Test [2] shares this target. The test is described as follows: AlphaScreen; FLAG-NRF2 wt isoform 1 9.6 nM, His-KEAP1 150 nM; Repeat 2; positive control for Q75R. (In general: In Alpha technology, singlet oxygen from a donor bead excites a nearby acceptor bead.)
For test [3] the target is unchanged. Description: AlphaScreen; 76.8 nM FLAG-NRF2, 150 nM His-KEAP1; Rep 2; control for I28V.
For test [4] the target is unchanged. Description: AlphaScreen; 153.6 nM FLAG-NRF2, 150 nM His-KEAP1; Rep 1; control for I28V.
For test [5] the target is unchanged. Description: AlphaScreen; 614.4 nM FLAG-NRF2, 150 nM His-KEAP1; Rep 1; control for I86V.
For test [6] the target is unchanged. The test is described as follows: AlphaScreen; 76.8 nM FLAG-NRF2, 150 nM His-KEAP1; signal against NRF2 only; control for I86V.
Test [7] has the same target. The test is described as follows: AlphaScreen; FLAG-NRF2 wt isoform 1 2.4 nM, His-KEAP1 150 nM; Rep 1; positive control for Q75R.
The target is the same in test [8]. The test is described as follows: AlphaScreen; 153.6 nM FLAG-NRF2, 150 nM His-KEAP1; Rep 1; control for I86V.
Test [9] has the same target. Description: AlphaScreen; FLAG-NRF2 wt isoform 1 9.6 nM, His-KEAP1 150 nM; Rep 1; positive control for Q75R.
For test [10] the target is unchanged. Description: AlphaScreen; 38.4 nM FLAG-NRF2, 150 nM His-KEAP1; Rep 1; control for I86V.
Test [11] has the same target. Description: AlphaScreen; 307.2 nM FLAG-NRF2, 150 nM His-KEAP1; Rep 1; control for I28V.
Test [12] shares this target. The test is described as follows: AlphaScreen; NRF2 wt isoform 1 19.2 nM, KEAP1 150 nM; set as the 100 % reference for Q75R.
For test [13] the target is unchanged. Description: AlphaScreen; FLAG-NRF2 wt isoform 1 19.2 nM, His-KEAP1 150 nM; Rep 1; positive control for Q75R.
Test [14] has the same target. The test is described as follows: AlphaScreen; FLAG-NRF2 wt isoform 1 9.6 nM, His-KEAP1 150 nM; Rep 2; positive control for I86V.
For test [15] the target is unchanged. Description: AlphaScreen; 9.6 nM FLAG-NRF2, 150 nM His-KEAP1; Rep 1; control for I86V.
For test [16] the target is unchanged. The test is described as follows: AlphaScreen; FLAG-NRF2 I86V 614.4 nM, His-KEAP1 150 nM; Rep 3.
Test [17] has the same target. The test is described as follows: AlphaScreen; FLAG-NRF2 I86V 76.8 nM, His-KEAP1 150 nM; Rep 2.
The target is the same in test [18]. The test is described as follows: AlphaScreen; 9.6 nM FLAG-NRF2, 150 nM His-KEAP1; Rep 1.
For test [19] the target is unchanged. Description: AlphaScreen; 19.2 nM FLAG-NRF2, 150 nM His-KEAP1; against wild-type NRF2 isoform 1 = 100%.
Test [20] has the same target. The test is described as follows: AlphaScreen; 9.6 nM FLAG-NRF2, 150 nM His-KEAP1; against wild-type NRF2 isoform 1 = 100%.
For test [21] the target is unchanged. The test is described as follows: AlphaScreen; 38.4 nM FLAG-NRF2, 150 nM His-KEAP1; Repeat 1 (same value as in Table 27).
For test [22] the target is unchanged. Description: AlphaScreen; FLAG-NRF2 Q75R 38.4 nM, His-KEAP1 150 nM; Rep 2.
Test [23] shares this target. The test is described as follows: AlphaScreen; FLAG-NRF2 Q75R 614.4 nM, His-KEAP1 150 nM; Rep 1.
For test [24] the target is unchanged. Description: AlphaScreen; NRF2 Q75R 9.6 nM, KEAP1 150 nM; relative to wild-type NRF2 isoform 1 (100 %).
For test [25] the target is unchanged. The test is described as follows: AlphaScreen; FLAG-NRF2 Q75R 38.4 nM, His-KEAP1 150 nM; Repeat 1.
The target is the same in test [26]. The test is described as follows: AlphaScreen; FLAG-NRF2 Q75R 307.2 nM, His-KEAP1 150 nM; Rep 1.
Test [27] has the same target. The test is described as follows: AlphaScreen; FLAG-NRF2 Q75R 1228.8 nM, His-KEAP1 150 nM; Rep 2.

KEAP1 (wild-type full-length), His-tagged (human), sequence (Q14145 2-624 limits assumed): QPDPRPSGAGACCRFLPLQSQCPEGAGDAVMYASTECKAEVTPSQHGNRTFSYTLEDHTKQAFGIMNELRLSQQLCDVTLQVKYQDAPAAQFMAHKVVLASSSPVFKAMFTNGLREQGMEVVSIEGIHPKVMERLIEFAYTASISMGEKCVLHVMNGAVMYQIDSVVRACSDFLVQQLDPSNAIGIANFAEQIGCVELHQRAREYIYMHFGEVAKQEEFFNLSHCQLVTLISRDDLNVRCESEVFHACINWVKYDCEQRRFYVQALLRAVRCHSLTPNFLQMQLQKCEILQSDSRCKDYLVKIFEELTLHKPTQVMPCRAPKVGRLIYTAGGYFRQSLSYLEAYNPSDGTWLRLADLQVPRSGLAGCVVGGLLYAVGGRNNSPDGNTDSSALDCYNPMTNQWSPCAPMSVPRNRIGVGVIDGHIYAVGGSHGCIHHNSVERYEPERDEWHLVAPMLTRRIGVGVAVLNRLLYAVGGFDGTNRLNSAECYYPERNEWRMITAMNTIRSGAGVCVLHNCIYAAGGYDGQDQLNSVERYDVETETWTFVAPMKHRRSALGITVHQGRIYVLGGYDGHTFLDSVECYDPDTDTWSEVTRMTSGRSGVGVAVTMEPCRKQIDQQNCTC

B1: NRF2 isoform 1 (wild-type full-length), FLAG-tagged (protein)
chain: MMDLELPPPGLPSQQDMDLIDILWRQDIDLGVSREVFDFSQRRKEYELEKQKKLEKERQEQLQKEQEKAFFAQLQLDEETGEFLPIQPAQHIQSETSGSANYSQVAHIPKSDALYFDDCMQLLAQTFPFVDDNEVSSATFQSLVPDIPGHIESPVFIATNQAQSPETSVAQVAPVDLDGMQQDIEQVWEELLSIPELQCLNIENDKLVETTMVPSPEAKLTEVDNYHFYSSIPSMEKEVGNCSPHFLNAFEDSFSSILSTEDPNQLTVNSLNSDATVNTDFGDEFYSAFIAEPSISNSMPSPATLSHSLSELLNGPIDVSDLSLCKAFNQNHPESTAEFNDSDSGISLNTSPSVASPEHSVESSSYGDTLLGLSDSEVEELDSAPGSVKQNGPKTPVHSSGDMVQPLSPSQGQSTHVHDAQCENTPEKELPVSPGHRKTPFTKDKHSSRLEAHLTRDELRAKALHIPFPVEKIINLPVVDFNEMMSKEQFNEAQLALIRDIRRRGKNKVAAQNCRKRKLENIVELEQDLDHLKDEKEKLLKEKGENDKSLHLLKKQLSTLYLEVFSMLRDEDGKPYSPSEYSLQQTRDGNVFLVPKSKKPDVKKN
As for B1, the S/N in [1] turned out to be 0.9; in test [6] it was 2.4. Moreover, the A-counts (NRF2 plus KEAP1) in test [2] was determined as 900 A-counts; in test [7] it was 419 A-counts; in test [9] it was 1024 A-counts; in test [13], 1360 A-counts; in test [14], 2720 A-counts. The A-counts came to 1970 A-counts in test [3]; 1930 A-counts in [4]; 2660 A-counts in test [5]; 3060 A-counts in test [8]; 3100 A-counts in [10]; 1850 A-counts in test [11]. The A-counts in test [15] came out at 2640 A-counts. Besides, the Binding Percentage in test [12] turned out to be 100%.

B2: NRF2 isoform 1 (I86V full-length), FLAG-tagged (protein)
chain: MMDLELPPPGLPSQQDMDLIDILWRQDIDLGVSREVFDFSQRRKEYELEKQKKLEKERQEQLQKEQEKAFFAQLQLDEETGEFLPVQPAQHIQSETSGSANYSQVAHIPKSDALYFDDCMQLLAQTFPFVDDNEVSSATFQSLVPDIPGHIESPVFIATNQAQSPETSVAQVAPVDLDGMQQDIEQVWEELLSIPELQCLNIENDKLVETTMVPSPEAKLTEVDNYHFYSSIPSMEKEVGNCSPHFLNAFEDSFSSILSTEDPNQLTVNSLNSDATVNTDFGDEFYSAFIAEPSISNSMPSPATLSHSLSELLNGPIDVSDLSLCKAFNQNHPESTAEFNDSDSGISLNTSPSVASPEHSVESSSYGDTLLGLSDSEVEELDSAPGSVKQNGPKTPVHSSGDMVQPLSPSQGQSTHVHDAQCENTPEKELPVSPGHRKTPFTKDKHSSRLEAHLTRDELRAKALHIPFPVEKIINLPVVDFNEMMSKEQFNEAQLALIRDIRRRGKNKVAAQNCRKRKLENIVELEQDLDHLKDEKEKLLKEKGENDKSLHLLKKQLSTLYLEVFSMLRDEDGKPYSPSEYSLQQTRDGNVFLVPKSKKPDVKKN
As for B2, the A-counts (NRF2 plus KEAP1) in test [16] was 1920 A-counts; in test [17], 2800 A-counts.

B3: NRF2 isoform 1 (I28V full-length), FLAG-tagged (protein)
chain: MMDLELPPPGLPSQQDMDLIDILWRQDVDLGVSREVFDFSQRRKEYELEKQKKLEKERQEQLQKEQEKAFFAQLQLDEETGEFLPIQPAQHIQSETSGSANYSQVAHIPKSDALYFDDCMQLLAQTFPFVDDNEVSSATFQSLVPDIPGHIESPVFIATNQAQSPETSVAQVAPVDLDGMQQDIEQVWEELLSIPELQCLNIENDKLVETTMVPSPEAKLTEVDNYHFYSSIPSMEKEVGNCSPHFLNAFEDSFSSILSTEDPNQLTVNSLNSDATVNTDFGDEFYSAFIAEPSISNSMPSPATLSHSLSELLNGPIDVSDLSLCKAFNQNHPESTAEFNDSDSGISLNTSPSVASPEHSVESSSYGDTLLGLSDSEVEELDSAPGSVKQNGPKTPVHSSGDMVQPLSPSQGQSTHVHDAQCENTPEKELPVSPGHRKTPFTKDKHSSRLEAHLTRDELRAKALHIPFPVEKIINLPVVDFNEMMSKEQFNEAQLALIRDIRRRGKNKVAAQNCRKRKLENIVELEQDLDHLKDEKEKLLKEKGENDKSLHLLKKQLSTLYLEVFSMLRDEDGKPYSPSEYSLQQTRDGNVFLVPKSKKPDVKKN
Take B3: the A-counts in test [18] was determined as 1570 A-counts; in [21], 1690 A-counts. The Binding Percentage (%) came to 68.3% in [19] and 77.6% in test [20].

B4: NRF2 isoform 1 (Q75R full-length), FLAG-tagged (protein)
chain: MMDLELPPPGLPSQQDMDLIDILWRQDIDLGVSREVFDFSQRRKEYELEKQKKLEKERQEQLQKEQEKAFFAQLRLDEETGEFLPIQPAQHIQSETSGSANYSQVAHIPKSDALYFDDCMQLLAQTFPFVDDNEVSSATFQSLVPDIPGHIESPVFIATNQAQSPETSVAQVAPVDLDGMQQDIEQVWEELLSIPELQCLNIENDKLVETTMVPSPEAKLTEVDNYHFYSSIPSMEKEVGNCSPHFLNAFEDSFSSILSTEDPNQLTVNSLNSDATVNTDFGDEFYSAFIAEPSISNSMPSPATLSHSLSELLNGPIDVSDLSLCKAFNQNHPESTAEFNDSDSGISLNTSPSVASPEHSVESSSYGDTLLGLSDSEVEELDSAPGSVKQNGPKTPVHSSGDMVQPLSPSQGQSTHVHDAQCENTPEKELPVSPGHRKTPFTKDKHSSRLEAHLTRDELRAKALHIPFPVEKIINLPVVDFNEMMSKEQFNEAQLALIRDIRRRGKNKVAAQNCRKRKLENIVELEQDLDHLKDEKEKLLKEKGENDKSLHLLKKQLSTLYLEVFSMLRDEDGKPYSPSEYSLQQTRDGNVFLVPKSKKPDVKKN
As for B4, the A-counts (NRF2 plus KEAP1) in test [22] came out at 1280 A-counts; in test [23], 855 A-counts; in test [25], 1200 A-counts; in test [26], 995 A-counts; in test [27], 653 A-counts. This molecule also returned a Binding Percentage in test [24] of 72.4%.
